Data published in patent US20210238260.
Numbering of substitutions follows the chain as printed. In names and notes the source's numbering stands.

T1: Factor VIIIa (FVIIIa), P00451
T1 chain: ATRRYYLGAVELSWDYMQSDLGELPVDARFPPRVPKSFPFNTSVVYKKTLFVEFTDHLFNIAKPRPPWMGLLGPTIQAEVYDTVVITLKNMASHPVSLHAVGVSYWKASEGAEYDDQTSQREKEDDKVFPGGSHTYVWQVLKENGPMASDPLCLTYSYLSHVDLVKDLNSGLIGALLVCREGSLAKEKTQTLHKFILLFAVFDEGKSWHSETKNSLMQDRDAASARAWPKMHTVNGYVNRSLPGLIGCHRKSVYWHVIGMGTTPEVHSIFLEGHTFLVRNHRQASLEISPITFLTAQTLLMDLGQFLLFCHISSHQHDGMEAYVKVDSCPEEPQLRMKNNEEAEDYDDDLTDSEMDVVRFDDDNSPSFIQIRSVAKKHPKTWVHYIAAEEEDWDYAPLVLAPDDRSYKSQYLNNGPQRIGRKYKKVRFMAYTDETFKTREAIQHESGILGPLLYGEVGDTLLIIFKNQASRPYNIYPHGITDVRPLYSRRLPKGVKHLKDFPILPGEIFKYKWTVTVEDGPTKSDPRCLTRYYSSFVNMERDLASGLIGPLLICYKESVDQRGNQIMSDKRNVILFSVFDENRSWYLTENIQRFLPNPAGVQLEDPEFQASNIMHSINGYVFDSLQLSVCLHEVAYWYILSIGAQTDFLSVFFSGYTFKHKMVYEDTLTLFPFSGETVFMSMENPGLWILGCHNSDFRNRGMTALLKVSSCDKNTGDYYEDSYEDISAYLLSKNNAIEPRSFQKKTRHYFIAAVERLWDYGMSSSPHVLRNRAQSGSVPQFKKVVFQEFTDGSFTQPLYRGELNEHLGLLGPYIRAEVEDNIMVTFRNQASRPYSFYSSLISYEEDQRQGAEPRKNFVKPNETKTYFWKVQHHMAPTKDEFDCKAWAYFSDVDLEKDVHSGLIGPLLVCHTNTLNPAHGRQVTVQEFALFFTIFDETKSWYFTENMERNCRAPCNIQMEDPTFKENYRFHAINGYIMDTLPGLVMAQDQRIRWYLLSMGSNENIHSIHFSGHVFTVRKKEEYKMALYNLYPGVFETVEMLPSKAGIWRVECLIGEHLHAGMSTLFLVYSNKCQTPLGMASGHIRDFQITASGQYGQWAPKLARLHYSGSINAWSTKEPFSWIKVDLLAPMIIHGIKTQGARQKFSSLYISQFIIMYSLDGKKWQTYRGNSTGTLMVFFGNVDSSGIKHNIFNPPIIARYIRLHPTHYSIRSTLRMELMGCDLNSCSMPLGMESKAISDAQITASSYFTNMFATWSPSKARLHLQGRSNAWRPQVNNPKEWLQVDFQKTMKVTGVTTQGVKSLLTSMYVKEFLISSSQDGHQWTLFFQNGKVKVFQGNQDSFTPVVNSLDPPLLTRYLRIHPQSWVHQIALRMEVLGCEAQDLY

B1: FIX of SEQ ID NO: 394, with the replacements R318Y/R338E/T343R (activated, FIXa) (protein)
chain 1: YNSGKLEEFVQGNLERECMEEKCSFEEAREVFENTERTTEFWKQYVDGDQCESNPCLNGGSCKDDINSYECWCPFGFEGKNCELDVTCNIKNGRCEQFCKNSADNKVVCSCTEGYRLAENQKSCEPAVPFPCGRVSVSQTSKLTR
chain 2: VVGGEDAKPGQFPWQVVLNGKVDAFCGGSIVNEKWIVTAAHCVETGVKITVVAGEHNIEETEHTEQKRNVIRIIPHHNYNAAINKYNHDIALLELDEPLVLNSYVTPICIADKEYTNIFLKFGSGYVSGWGRVFHKGYSALVLQYLRVPLVDRATCLESTKFRIYNNMFCAGFHEGGRDSCQGDSGGPHVTEVEGTSFLTGIISWGEECAMKGKYGIYTKVSRYVNWIKEKTKLT
B2: FIXa-Y155F/K247N/N249S/R318Y/R338E/E410N (protein)
chain 1: B1 chain 1
chain 2: B1 chain 2 with K67N, N69S, R163T, E230N
B3: FIXa-K247N/N249S/R318Y/R338E/R403E/E410N (protein)
chain 1: B1 chain 1
chain 2: B1 chain 2 with K67N, N69S, R163T, R223E, E230N
B4: FIXa-K228N/K247N/N249S (protein)
chain 1: B1 chain 1
chain 2: B1 chain 2 with K48N, K67N, N69S, Y138R, E158R, R163T
B5: FIXa-R318Y/R338E/R403E/E410N/T412A (protein)
chain 1: B1 chain 1
chain 2: B1 chain 2 with R163T, R223E, E230N, T232A
B6: FIXa-Y155F/R318Y/R338E/N346D/R403E/E410N (protein)
chain 1: B1 chain 1
chain 2: B1 chain 2 with R163T, N166D, R223E, E230N
B7: FIXa-D104N/K106S/I251S/R318Y/R338E/E410N (protein)
chain 1: B1 chain 1 with D104N, K106S
chain 2: B1 chain 2 with I71S, R163T, E230N
B8: FIXa-R318Y/R338E/E410S (protein)
chain 1: B1 chain 1
chain 2: B1 chain 2 with R163T, E230S
B9: FIXa-I251S/R318Y/R338E/E410N (protein)
chain 1: B1 chain 1
chain 2: B1 chain 2 with I71S, R163T, E230N
B10: FIXa-Y259F/K265T/Y345T (protein)
chain 1: B1 chain 1
chain 2: B1 chain 2 with Y79F, K85T, Y138R, E158R, R163T, Y165T
B11: FIXa-K247N/N249S/R318Y/R338E/E410N (protein)
chain 1: B1 chain 1
chain 2: B1 chain 2 with K67N, N69S, R163T, E230N
B12: FIXa-D104N/K106S/K228N/K247N/N249S (protein)
chain 1: B1 chain 1 with D104N, K106S
chain 2: B1 chain 2 with K48N, K67N, N69S, Y138R, E158R, R163T
B13: FIXa-D104N/K106S/N260S/R318Y/R338E/R403E/E410N (protein)
chain 1: B1 chain 1 with D104N, K106S
chain 2: B1 chain 2 with N80S, R163T, R223E, E230N
B14: FIXa-A103N/N105S/K247N/N249S/R318Y/R338E/R403E/E410N (protein)
chain 1: B1 chain 1 with A103N, N105S
chain 2: B1 chain 2 with K67N, N69S, R163T, R223E, E230N
B15: FIXa-R318Y/R338E/E410N/T412V (protein)
chain 1: B1 chain 1
chain 2: B1 chain 2 with R163T, E230N, T232V
B16: FIXa-N260S/R318Y/R338E/R403E/E410N (protein)
chain 1: B1 chain 1
chain 2: B1 chain 2 with N80S, R163T, R223E, E230N
B17: FIXa-D104N/K106S/Y155F/K228N/K247N/N249S (protein)
chain 1: B1 chain 1 with D104N, K106S
chain 2: B1 chain 2 with K48N, K67N, N69S, Y138R, E158R, R163T

Experiments:
[1] = target: T1, Factor VIIIa (FVIIIa), P00451
[2] = target: plasma purified human AT-III (antithrombin III); experiment: AT-III/UFH inhibition K0.5, ratio to Catalyst Biosciences WT FIXa
[3] = target: T2, plasma purified human antithrombin III (AT-III), as complex with unfractionated heparin; experiment: ratio of K0.5 to Catalyst Biosciences WT FIXa, AT-III/UFH inhibition
[4] = target: T2, plasma purified human antithrombin III …; experiment: ratio of K0.5 (lower limit) to Catalyst Biosciences WT FIXa, AT-III/UFH inhibition

Chain of Factor X (FX), P00742 (P00742 whole entry, looked up): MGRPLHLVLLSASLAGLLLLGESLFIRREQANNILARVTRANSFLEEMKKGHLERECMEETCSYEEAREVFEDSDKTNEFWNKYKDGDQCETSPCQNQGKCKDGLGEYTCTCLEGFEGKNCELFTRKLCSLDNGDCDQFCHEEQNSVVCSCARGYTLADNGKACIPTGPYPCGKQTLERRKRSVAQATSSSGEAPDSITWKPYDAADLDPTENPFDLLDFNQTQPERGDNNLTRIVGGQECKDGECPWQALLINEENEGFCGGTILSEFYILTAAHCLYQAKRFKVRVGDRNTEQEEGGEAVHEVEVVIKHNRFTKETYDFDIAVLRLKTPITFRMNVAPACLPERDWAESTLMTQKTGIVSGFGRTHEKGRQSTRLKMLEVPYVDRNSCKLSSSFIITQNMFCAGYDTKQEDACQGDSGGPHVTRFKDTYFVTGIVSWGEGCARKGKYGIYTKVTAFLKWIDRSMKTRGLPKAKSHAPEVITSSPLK
Chain of Factor X, P00742 (P00742 whole entry, looked up): as above

Protein | % of WT kcat/KM (Factor X (FX), P00742) | kcat (Factor X (FX), P00742) | kcat/KM (Factor X (FX), P00742) | % of WT kcat/KM (Factor X, P00742) | KM (Factor X, P00742) | kcat/KM (Factor X, P00742) | K0.5-mut/K0.5-wt [2] | K0.5-mut/K0.5-wt [3] | kcat of FX activation by FIXa (Xase complex with FVIIIa, PC/PS vesicles, Ca2+) (Factor X (FX), P00742) | other results
B1 |  |  |  |  |  |  |  |  |  | FIX activity, mean, Test 1, FVIIIa 0 ng/mL (no cofactor, baseline) [1]: 1.24; FIX activity, mean, Test 1, FVIIIa 5 ng/mL [1]: 278; FIX activity, mean, Test 2, FVIIIa 0 ng/mL (no cofactor, baseline) [1]: 1.25; FIX activity, mean, Test 2, FVIIIa 10 ng/mL [1]: 479; FIX activity, mean, Test 3, FVIIIa 0 ng/mL (no cofactor, baseline) [1]: 1.28; FIX activity, mean, Test 3, FVIIIa 15 ng/mL [1]: 622; Fold-increase after FVIIIa addition, Test 1 (5 ng/mL) [1]: 225 fold; Fold-increase after FVIIIa addition, Test 2 (10 ng/mL) [1]: 384 fold; Fold-increase after FVIIIa addition, Test 3 (15 ng/mL) [1]: 486 fold; Ratio (CB2679d vs BeneFIX FIX) of FIX activity, Test 1, FVIIIa 0 ng/mL (no cofactor) [1]: 1.3; Ratio (CB2679d vs BeneFIX FIX) of FIX activity, Test 1, FVIIIa 5 ng/mL [1]: 2; Ratio (CB2679d vs BeneFIX FIX) of FIX activity, Test 2, FVIIIa 0 ng/mL (no cofactor) [1]: 1.4; Ratio (CB2679d vs BeneFIX FIX) of FIX activity, Test 2, FVIIIa 10 ng/mL [1]: 2; Ratio (CB2679d vs BeneFIX FIX) of FIX activity, Test 3, FVIIIa 0 ng/mL (no cofactor) [1]: 1.3; Ratio (CB2679d vs BeneFIX FIX) of FIX activity, Test 3, FVIIIa 15 ng/mL [1]: 2; Cofactor-Dependent Indirect kcat/KM (Factor X (FX), P00742): 1.2e+08 M⁻¹ s⁻¹; Fold Change, In Vitro Assays: Pro-coagulant Activity (Factor X (FX), P00742): 2.8 fold; Fold Increase over BeneFIX FIX (Cofactor-Dependent Indirect kcat/KM) (Factor X (FX), P00742): 2.8 fold
B2 | 717% | 4.3 s⁻¹ | 3.3e+08 M⁻¹ s⁻¹ | 674% | 0.0153 µM | 3e+08 M⁻¹ s⁻¹ | 200 | 200 |  | 
B3 | 331% | 5.8 s⁻¹ | 1.5e+08 M⁻¹ s⁻¹ | 341% | 0.0392 µM | 1.5e+08 M⁻¹ s⁻¹ | 418 | 418 |  | 
B4 |  |  |  | 86% | 0.0945 µM | 3.8e+07 M⁻¹ s⁻¹ | 4.4 | 4.4 |  | 
B5 |  |  |  | 577% |  | 2.6e+08 M⁻¹ s⁻¹ | > 517 |  | 7.8 s⁻¹ | KM (Factor X (FX), P00742): 0.0335 µM; kcat (Factor X, P00742): 8.4 s⁻¹; K0.5-mut/K0.5-wt [4]: 517
B6 |  |  |  | 139% |  | 6.2e+07 M⁻¹ s⁻¹ | > 517 |  | 6.4 s⁻¹ | KM (Factor X (FX), P00742): 0.1 µM; kcat (Factor X, P00742): 6.4 s⁻¹; K0.5-mut/K0.5-wt [4]: 517
B7 |  |  |  | 300% | 0.0243 µM | 1.3e+08 M⁻¹ s⁻¹ | 464 | 464 |  | 
B8 |  |  |  | 730% | 0.0164 µM | 3.3e+08 M⁻¹ s⁻¹ | 279 | 279 |  | 
B9 | 849% | 6.2 s⁻¹ | 3.9e+08 M⁻¹ s⁻¹ | 851% | 0.0162 µM | 3.8e+08 M⁻¹ s⁻¹ | 303 | 303 |  | 
B10 |  |  |  |  |  |  | 0.3 | 0.3 |  | 
B11 | 501% | 3.8 s⁻¹ | 2.3e+08 M⁻¹ s⁻¹ | 516% | 0.0166 µM | 2.3e+08 M⁻¹ s⁻¹ | 78.3 | 78.3 |  | 
B12 |  | 1.7 s⁻¹ |  |  |  |  | 2.1 | 2.1 | 1.7 s⁻¹ | 
B13 |  |  |  | 196% |  | 8.8e+07 M⁻¹ s⁻¹ | > 517 |  | 5.4 s⁻¹ | KM (Factor X (FX), P00742): 0.0611 µM; kcat (Factor X, P00742): 5.4 s⁻¹; K0.5-mut/K0.5-wt [4]: 517
B14 | 324% | 4.1 s⁻¹ | 1.5e+08 M⁻¹ s⁻¹ | 232% | 0.0397 µM | 1e+08 M⁻¹ s⁻¹ | 129 | 129 |  | 
B15 |  |  |  | 536% |  | 2.4e+08 M⁻¹ s⁻¹ | 252 |  | 5.2 s⁻¹ | KM (Factor X (FX), P00742): 0.0297 µM; kcat (Factor X, P00742): 6.3 s⁻¹; K0.5-mut/K0.5-wt [4]: 517
B16 |  |  |  | 117% |  | 5.3e+07 M⁻¹ s⁻¹ | > 517 |  | 3.8 s⁻¹ | KM (Factor X (FX), P00742): 0.0724 µM; kcat (Factor X, P00742): 3.8 s⁻¹; K0.5-mut/K0.5-wt [4]: 517
B17 | 137% | 4.7 s⁻¹ | 6.3e+07 M⁻¹ s⁻¹ | 142% | 0.0753 µM | 6.3e+07 M⁻¹ s⁻¹ | 1.6 | 1.6 | 4.7 s⁻¹ | 
